Data published in IntAct's records for PubMed 31515488.

B1: Coiled-coil domain-containing protein 42 (Homo sapiens), Q96M95 (parent)
chain: MSLGIMEEEDLAEYFRLQYGERLLQMLQKLPNVEGASESPSIWLLEKKKETEIMHQTMVQKKKMFQRRMETLNLRWEELGVKEAQLKAHIQKSEQFIQENDQKRIRAMKKANKERELKCQHMQELTKRKQEMVALRLEHQRLSAKLKDYYIFNKYLEKVVENSEFEEIHEVIARYKTLVSMRHDLMQSAQEGQEKIERAKARLARYMEEKDDEILQQNNELARLQMRFDRARSNVIFWESRWAHIQNTAAKKTLLLGTIKMATLNLFQIVSKHLKEVTEVALEDTHKQLDMIQQFIQDRSDIWAEVKKKEQQRVRI
B2: Chondroitin sulfate N-acetylgalactosaminyltransferase 2 (Homo sapiens), Q8N6G5 (parent)
chain: MPRRGLILHTRTHWLLLGLALLCSLVLFMYLLECAPQTDGNASLPGVVGENYGKEYYQALLQEQEEHYQTRATSLKRQIAQLKQELQEMSEKMRSLQERRNVGANGIGYQSNKEQAPSDLLEFLHSQIDKAEVSIGAKLPSEYGVIPFESFTLMKVFQLEMGLTRHPEEKPVRKDKRDELVEVIEAGLEVINNPDEDDEQEDEEGPLGEKLIFNENDFVEGYYRTERDKGTQYELFFKKADLTEYRHVTLFRPFGPLMKVKSEMIDITRSIINIIVPLAERTEAFVQFMQNFRDVCIHQDKKIHLTVVYFGKEGLSKVKSILESVTSESNFHNYTLVSLNEEFNRGRGLNVGARAWDKGEVLMFFCDVDIYFSAEFLNSCRLNAEPGKKVFYPVVFSLYNPAIVYANQEVPPPVEQQLVHKKDSGFWRDFGFGMTCQYRSDFLTIGGFDMEVKGWGGEDVHLYRKYLHGDLIVIRTPVPGLFHLWHEKRCADELTPEQYRMCIQSKAMNEASHSHLGMLVFREEIETHLHKQAYRTNSEAVG
B3: Phosphoserine phosphatase (Homo sapiens), P78330 (parent)
chain: MVSHSELRKLFYSADAVCFDVDSTVIREEGIDELAKICGVEDAVSEMTRRAMGGAVPFKAALTERLALIQPSREQVQRLIAEQPPHLTPGIRELVSRLQERNVQVFLISGGFRSIVEHVASKLNIPATNVFANRLKFYFNGEYAGFDETQPTAESGGKGKVIKLLKEKFHFKKIIMIGDGATDMEACPPADAFIGFGGNVIRQQVKDNAKWYITDFVELLGELEE
partner: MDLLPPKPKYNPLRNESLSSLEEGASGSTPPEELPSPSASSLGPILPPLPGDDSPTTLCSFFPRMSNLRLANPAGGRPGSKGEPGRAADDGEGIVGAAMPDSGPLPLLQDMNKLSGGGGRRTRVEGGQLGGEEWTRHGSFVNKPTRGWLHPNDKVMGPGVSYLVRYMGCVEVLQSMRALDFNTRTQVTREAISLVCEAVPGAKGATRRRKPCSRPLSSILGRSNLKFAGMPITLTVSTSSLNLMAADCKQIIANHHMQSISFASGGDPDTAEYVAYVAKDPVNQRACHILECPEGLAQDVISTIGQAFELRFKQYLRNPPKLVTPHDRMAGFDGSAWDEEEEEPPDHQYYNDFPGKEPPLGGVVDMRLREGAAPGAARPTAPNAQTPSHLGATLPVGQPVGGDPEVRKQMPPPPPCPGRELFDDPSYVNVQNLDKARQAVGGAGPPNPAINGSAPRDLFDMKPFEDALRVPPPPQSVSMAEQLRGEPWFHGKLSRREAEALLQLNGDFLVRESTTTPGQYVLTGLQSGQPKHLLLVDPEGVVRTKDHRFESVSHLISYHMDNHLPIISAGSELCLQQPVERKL
B4: Hematopoietic prostaglandin D synthase (Homo sapiens), O60760 (parent)
chain: MPNYKLTYFNMRGRAEIIRYIFAYLDIQYEDHRIEQADWPEIKSTLPFGKIPILEVDGLTLHQSLAIARYLTKNTDLAGNTEMEQCHVDAIVDTLDDFMSCFPWAEKKQDVKEQMFNELLTYNAPHLMQDLDTYLGGREWLIGNSVTWADFYWEICSTTLLVFKPDLLDNHPRLVTLRKKVQAIPAVANWIKRRPQTKL
partner: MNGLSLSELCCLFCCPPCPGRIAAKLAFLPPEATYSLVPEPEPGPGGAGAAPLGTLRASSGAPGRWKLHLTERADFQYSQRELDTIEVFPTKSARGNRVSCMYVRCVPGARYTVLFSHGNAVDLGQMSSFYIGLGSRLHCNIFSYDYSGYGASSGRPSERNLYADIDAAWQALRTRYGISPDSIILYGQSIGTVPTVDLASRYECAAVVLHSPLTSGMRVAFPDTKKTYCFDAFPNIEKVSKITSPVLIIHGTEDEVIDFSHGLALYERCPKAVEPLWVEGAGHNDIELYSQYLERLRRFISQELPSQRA
B5: Serine/arginine-rich splicing factor 4 (Homo sapiens), Q08170 (parent)
chain: MPRVYIGRLSYQARERDVERFFKGYGKILEVDLKNGYGFVEFDDLRDADDAVYELNGKDLCGERVIVEHARGPRRDGSYGSGRSGYGYRRSGRDKYGPPTRTEYRLIVENLSSRCSWQDLKDYMRQAGEVTYADAHKGRKNEGVIEFVSYSDMKRALEKLDGTEVNGRKIRLVEDKPGSRRRRSYSRSRSHSRSRSRSRHSRKSRSRSGSSKSSHSKSRSRSRSGSRSRSKSRSRSQSRSRSKKEKSRSPSKEKSRSRSHSAGKSRSKSKDQAEEKIQNNDNVGKPKSRSPSRHKSKSKSRSRSQERRVEEEKRGSVSRGRSQEKSLRQSRSRSRSKGGSRSRSRSRSKSKDKRKGRKRSREESRSRSRSRSKSERSRKRGSKRDSKAGSSKKKKKEDTDRSQSRSPSRSVSKEREHAKSESSQREGRGESENAGTNQETRSRSRSNSKSKPNLPSESRSRSKSASKTRSRSKSRSRSASRSPSRSRSRSHSRS
B6: PDZ and LIM domain protein 3 (Homo sapiens), Q53GG5 (parent)
chain: MPQTVILPGPAPWGFRLSGGIDFNQPLVITRITPGSKAAAANLCPGDVILAIDGFGTESMTHADAQDRIKAAAHQLCLKIDRGETHLWSPQVSEDGKAHPFKINLESEPQDGNYFEHKHNIRPKPFVIPGRSSGCSTPSGIDCGSGRSTPSSVSTVSTICPGDLKVAAKLAPNIPLEMELPGVKIVHAQFNTPMQLYSDDNIMETLQGQVSTALGETPLMSEPTASVPPESDVYRMLHDNRNEPTQPRQSGSFRVLQGMVDDGSDDRPAGTRSVRAPVTKVHGGSGGAQRMPLCDKCGSGIVGAVVKARDKYRHPECFVCADCNLNLKQKGYFFIEGELYCETHARARTKPPEGYDTVTLYPKA

Variants of: B1
Conditions: with trim1_human MID2, Q9UJV3
Chain of trim1_human MID2, Q9UJV3 (Q9UJV3 whole entry): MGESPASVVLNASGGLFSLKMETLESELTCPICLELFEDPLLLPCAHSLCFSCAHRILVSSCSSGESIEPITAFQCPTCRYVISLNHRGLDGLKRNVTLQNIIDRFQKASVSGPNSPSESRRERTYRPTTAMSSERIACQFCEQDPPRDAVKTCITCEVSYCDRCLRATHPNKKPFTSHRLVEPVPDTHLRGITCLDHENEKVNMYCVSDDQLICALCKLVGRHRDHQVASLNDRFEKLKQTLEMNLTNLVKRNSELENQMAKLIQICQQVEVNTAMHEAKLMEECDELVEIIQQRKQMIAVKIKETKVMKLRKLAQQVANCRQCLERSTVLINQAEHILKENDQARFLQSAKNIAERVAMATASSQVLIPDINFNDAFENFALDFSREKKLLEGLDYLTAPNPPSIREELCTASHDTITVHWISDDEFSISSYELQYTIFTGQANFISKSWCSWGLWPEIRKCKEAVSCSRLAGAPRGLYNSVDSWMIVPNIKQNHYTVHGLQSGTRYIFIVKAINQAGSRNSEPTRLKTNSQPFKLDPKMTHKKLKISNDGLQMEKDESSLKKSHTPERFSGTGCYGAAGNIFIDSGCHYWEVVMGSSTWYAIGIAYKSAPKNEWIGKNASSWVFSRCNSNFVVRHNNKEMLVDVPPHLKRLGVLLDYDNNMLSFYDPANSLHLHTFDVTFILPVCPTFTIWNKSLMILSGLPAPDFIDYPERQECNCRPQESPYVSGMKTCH

Variant | effect of a mutation on the interaction
R128H | with no effect
A144T | with no effect

Variants of: B1
Conditions: with tfp11_human TFIP11, Q9UBB9
Chain of tfp11_human TFIP11, Q9UBB9 (Q9UBB9 whole entry): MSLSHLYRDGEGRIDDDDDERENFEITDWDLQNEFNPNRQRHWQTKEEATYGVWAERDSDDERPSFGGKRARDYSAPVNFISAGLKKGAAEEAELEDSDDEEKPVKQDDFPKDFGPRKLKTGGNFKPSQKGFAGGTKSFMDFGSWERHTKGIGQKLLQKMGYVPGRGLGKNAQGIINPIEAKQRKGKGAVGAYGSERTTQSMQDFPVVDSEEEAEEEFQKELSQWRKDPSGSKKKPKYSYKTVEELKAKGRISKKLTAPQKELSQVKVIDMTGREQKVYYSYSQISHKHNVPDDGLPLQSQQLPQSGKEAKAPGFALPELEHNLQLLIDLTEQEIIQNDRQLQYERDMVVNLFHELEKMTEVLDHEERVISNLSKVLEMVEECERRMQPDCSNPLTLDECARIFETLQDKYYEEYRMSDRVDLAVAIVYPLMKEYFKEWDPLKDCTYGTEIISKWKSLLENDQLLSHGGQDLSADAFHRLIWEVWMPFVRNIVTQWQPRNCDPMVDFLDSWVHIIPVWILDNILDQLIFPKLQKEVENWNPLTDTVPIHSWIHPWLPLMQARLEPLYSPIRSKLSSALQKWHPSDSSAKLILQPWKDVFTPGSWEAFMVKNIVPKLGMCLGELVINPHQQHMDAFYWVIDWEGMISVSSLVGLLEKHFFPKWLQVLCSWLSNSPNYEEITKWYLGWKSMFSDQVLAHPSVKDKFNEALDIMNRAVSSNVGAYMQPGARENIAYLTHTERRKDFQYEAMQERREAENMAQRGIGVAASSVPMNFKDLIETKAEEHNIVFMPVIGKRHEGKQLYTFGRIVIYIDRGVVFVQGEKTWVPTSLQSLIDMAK

Variant | effect of a mutation on the interaction
R128H | with no effect
A144T | with no effect

Variants of: B2
Conditions: with BCL2L13, Q9BXK5
Chain of BCL2L13, Q9BXK5 (Q9BXK5 whole entry): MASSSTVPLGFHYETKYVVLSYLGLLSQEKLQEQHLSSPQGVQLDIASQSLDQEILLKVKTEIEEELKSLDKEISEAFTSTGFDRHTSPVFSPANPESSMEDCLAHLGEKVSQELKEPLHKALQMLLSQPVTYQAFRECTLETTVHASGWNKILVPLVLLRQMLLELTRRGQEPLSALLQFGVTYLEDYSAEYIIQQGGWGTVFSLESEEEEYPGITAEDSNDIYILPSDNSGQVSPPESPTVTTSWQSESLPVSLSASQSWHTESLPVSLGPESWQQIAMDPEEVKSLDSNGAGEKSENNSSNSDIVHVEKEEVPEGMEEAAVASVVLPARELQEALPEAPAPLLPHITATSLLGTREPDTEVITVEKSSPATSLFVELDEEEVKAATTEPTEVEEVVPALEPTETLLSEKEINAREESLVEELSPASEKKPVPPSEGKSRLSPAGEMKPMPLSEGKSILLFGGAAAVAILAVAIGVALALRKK

Variant | effect of a mutation on the interaction
P479S | with no effect

Variants of: B3
Conditions: with shc1_human SHC1, P29353

Variant | effect of a mutation on the interaction
T149M | with no effect
T152I | with no effect

Variants of: B4
Conditions: with ab17a_human ABHD17A

Variant | effect of a mutation on the interaction
M128T | disrupting interaction strength

Variants of: B5
Conditions: with srsf6_human SRSF6, Q13247
Chain of srsf6_human SRSF6, Q13247 (Q13247 whole entry, looked up): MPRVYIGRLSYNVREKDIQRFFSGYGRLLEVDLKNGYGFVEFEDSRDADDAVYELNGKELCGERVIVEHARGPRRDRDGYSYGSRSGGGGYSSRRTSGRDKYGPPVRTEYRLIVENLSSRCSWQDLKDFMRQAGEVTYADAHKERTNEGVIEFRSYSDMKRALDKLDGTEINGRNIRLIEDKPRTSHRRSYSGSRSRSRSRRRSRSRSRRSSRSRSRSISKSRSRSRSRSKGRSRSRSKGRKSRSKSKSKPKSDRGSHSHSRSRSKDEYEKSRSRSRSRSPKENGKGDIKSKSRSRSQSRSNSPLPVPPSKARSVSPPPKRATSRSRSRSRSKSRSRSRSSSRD

Variant | effect of a mutation on the interaction
G338A | with no effect

Variants of: B6
Conditions: with actn2_human ACTN2, P35609
Chain of actn2_human ACTN2, P35609 (P35609 whole entry): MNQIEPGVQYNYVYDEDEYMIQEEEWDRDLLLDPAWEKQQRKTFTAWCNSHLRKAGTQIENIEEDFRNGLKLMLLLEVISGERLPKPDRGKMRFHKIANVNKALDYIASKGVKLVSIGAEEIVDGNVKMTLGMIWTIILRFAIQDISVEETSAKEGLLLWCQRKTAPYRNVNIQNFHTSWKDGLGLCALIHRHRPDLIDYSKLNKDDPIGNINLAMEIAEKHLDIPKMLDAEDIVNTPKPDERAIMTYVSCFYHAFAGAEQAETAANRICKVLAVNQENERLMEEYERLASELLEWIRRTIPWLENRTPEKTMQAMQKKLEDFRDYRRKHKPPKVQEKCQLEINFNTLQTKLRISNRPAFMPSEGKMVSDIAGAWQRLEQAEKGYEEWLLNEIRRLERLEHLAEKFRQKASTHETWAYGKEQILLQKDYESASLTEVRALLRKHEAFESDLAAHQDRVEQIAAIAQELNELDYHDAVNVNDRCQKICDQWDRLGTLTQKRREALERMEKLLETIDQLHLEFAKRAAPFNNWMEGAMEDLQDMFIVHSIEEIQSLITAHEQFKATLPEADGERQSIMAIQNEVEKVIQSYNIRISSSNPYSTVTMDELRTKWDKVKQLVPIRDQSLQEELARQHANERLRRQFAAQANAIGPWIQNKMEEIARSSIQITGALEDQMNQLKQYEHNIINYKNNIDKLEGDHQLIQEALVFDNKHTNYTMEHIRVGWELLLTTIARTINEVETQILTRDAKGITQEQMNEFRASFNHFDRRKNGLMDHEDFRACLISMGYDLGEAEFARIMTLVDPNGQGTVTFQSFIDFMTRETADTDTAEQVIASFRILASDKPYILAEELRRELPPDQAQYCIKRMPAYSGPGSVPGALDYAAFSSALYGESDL

Variant | effect of a mutation on the interaction
T279M | with no effect
T245I | with no effect
